PMC10641266, “Sequence tolerance of immunoglobulin variable domain framework regions to noncanonical intradomain disulfide linkages” (The Journal of Biological Chemistry, 2023)
Positions count from the first letter of the chain named.

Target: Clostridioides difficile toxin A (Clostridioides difficile, strain not …, UniProt P16154)
Assay: SPR
Conditions: both partners purified

B1: A26.8 VHH, wild-type (canonical Cys23-Cys104 disulfide linkage only) (VHH)
VHH: QVKLEESGGGLVQAGGSLRLSCAASERTFSRYPVAWFRQAPGAEREFVAVISSTGTSTYYADSVKGRFTISRDNAKVTVYLQMNNLKREDTAVYFCAVNSQRTRLQDPNEYDYWGQGTQVTVSS
Question: For B1, which Kd is on record?
Answer: 16.5 nM

Question: And the koff?
Answer: 0.0259 s⁻¹

Question: And the kon?
Answer: 1.57e+06 M⁻¹ s⁻¹

B2: A26.8 VHH with engineered Cys22-Cys88 disulfide linkage (VHH)
VHH: B1 VHH with S21C, Y80C
Question: B2 was tested. Which Kd did it give?
Answer: 18.7 nM

Question: And the koff?
Answer: 0.028 s⁻¹

Question: What about the kon of the same binder?
Answer: 1.5e+06 M⁻¹ s⁻¹

B3: A26.8 VHH with engineered Cys6-Cys119 disulfide linkage (VHH)
VHH: B1 VHH with E6C, G115C
Question: What does the source list for B3?
Answer: Kd: 12.6 nM; koff: 0.0691 s⁻¹; kon: 5.5e+06 M⁻¹ s⁻¹

B4: A26.8 VHH with engineered Cys4-Cys118 pair (VHH)
VHH: B1 VHH with L4C, W114C
Question: How did the Kd turn out when B4 was run?
Answer: 43.4 nM

B5: A26.8 VHH with engineered Cys4-Cys25 disulfide linkage (VHH)
VHH: B1 VHH with L4C, A24C
Question: For B5, which Kd is on record?
Answer: 12.6 nM

Question: And the koff?
Answer: 0.062 s⁻¹

Question: What about the kon of the same binder?
Answer: 4.93e+06 M⁻¹ s⁻¹

B6: A26.8 VHH with engineered Cys24-Cys86 disulfide linkage (VHH)
VHH: B1 VHH with A23C, T78C
Question: How did the Kd turn out when B6 was run?
Answer: 43.6 nM

Question: What about the koff of the same binder?
Answer: 0.0271 s⁻¹

Question: And the kon?
Answer: 621000 M⁻¹ s⁻¹
